Test results: doi:10.1101/2025.03.26.645568

Target: Mam1A_(107-213) (Mycobacterium tuberculosis H37Rv)
Test: SEC-MALS

Mam1A_(107-213) (domain or fragment)
stoichiometry N: 4
